According to a protein production outcome set (Wang et al. 2014):

Test: label from the status in PepcDB records

Sequence	protein production
MKKNKLTTLALILPITILTPIVIASCTNKTKVKKSSSLDKIASNLKLEYFNNKANTKASSVQKDEIKKPLNLPNDVVFSVKDVFVSHKDQSVLIVKYTLKKGNEIQEYTYEIKGFKSVYEKDKIVNDLSQANEDFKKIVNNIRLKDTFDFKLAAFPNQNYDQLLPSQIYKNYYQGIEIQQHKYQNELDIKIINFLYPDGDFGSANKNGTLKLSLMLTDKKNNQVYYKLLEVSGFKSNPYGVDENGTIPGIGTERLKPKNQDDYFSKTQLQRYEIDNEGYLQILKRQNNDKNWKELRPDLNATVSDIKHFDEKAKNVGQDSYESAAYKGFTLPVYESDGKISGLALAGKDTPKGPSWVDAIGRNQWQIGGLPRTLPNEKYRQEAMQTFSLGILNNDSHKNNTYNKTAGTTWILDYQKTSDNKYPTKWYFATNLHVADAINENTLSINLMRLMDSAQIKTTFRLSNLDENIYNFGFRSKEHGKNLLNHGLKKIFDGRDFLKTKPAEYLINSQKEKYKDVGNFTDFAVFELDFEKLELVNVWKNFLGENNGLVTKYNNYNPQELAKVITSNYANNKNNQIKFLSKSYLSDYSKIDVPLKYRQEDAKTWFKKYDELFALGWPNSTEDFFFKAYVDDDQLKYRTRDNFSLWTNSDYRFFNNLTQQEGGQPAFPPERTERGNYLSYAIGFRSFIQKPGIVDAFIAVPQIGNNLYTSSDNKKYINMGLEYLPKHFAPAGGASGTSVRNQKNELVAIYHAKYDSSKTGLAAAFRSEGYDYQGLYGNYNLPQYDLIYGGGKDQTEKKSYREAMKDIYQNNNIKTALFPDGFDKIPDEFKFNNN	failed
MKKNLFYLFALICSMSLFTACSDDDEAPGNSGVVGEVVGDYKGLMDVYYEPNVEIAKGMQQKITIKKSSDTSIGLELKNFVITVGGAPITIGDLAIDNCPLKVEGDKYSFTGNADLDLVVGKCAVSVEGAINGEDIELIIKVNVNNDLMKVRVEYKGKKMTGNESSEALIKEFKFDSDIIAEQPVINEDKTITFKVAETATDDDLKALKPIITISENATVTPESGVTQDFSGNKVVIYKVTSEDGTTVTEYKVSARKSSDALITSFVFENNPIVAEQPVINEDNTITFKVKASATADDLKALVPTITYSHKATIAPESGVAQDFSDNKKVIYTVTSEDGTVIKEYQVFISGTEDVYDFEKWLPGVEGQEPENTFYEAEGWASSNTGAHFLKGFNLTDSYVIMQTDDSHSGTAAAKIQSIDTKGQDLGIAKAPKVTTGSLFLGKFKTDIFNTLNSTKFGIPCKEKPISLRGWYKYTPGDVYYIVNTKPYKEHCHEAVVDETKVDEFMISVVLYETTAYDEIGWSDCLTGTDEEEKNIYTSSRIAAIGQLIGGAQTDWKKFELPLEWKKQYDTNKKYRMTIACSSSKDGDKFWGAPGSTLIVDDFELIKE	failed
MKKPFFGFMFIALFSASLFCNPADLYQKGAEYQANEDWYGAIEMYQSALKENPSYNLVYQGLAECFYALDEYDQALSFVESARKYKKDDPDLQNLHGFILVGLGKIDAAKTLFNGVLKKYPNNPEARFGLAEIEVSQGKLYLASEMYKQNLQRQGENRKDLLSLALVSYEAGNVKQAEDYINRALKYHGDNPQVHYFAAYLHSLDGKLEEAEGRIYSALKLKEDYDEAYALLASVLYAQKRYEEVIKISDMRISKKRDRADAWYLKTLSLRQLARYGEAINAAKVGLSLDADDEIMRCLLEELAIENLNFEDSFRMELSKYHAQKALGFFRRNMTEQALYEYRRTLKIYPYDVESREAYAGILLRLGYPERYLEQMLFIQSIVKSNTKVNDAVEAYEKHLLSSIQSKWRIDPLYLDKAHISIGLFYTMESSNVLHPEAERITQILTSDIFSYNPRIKITSYSDKPVTYREASKKSRTANEDYFGIIRLKENRRDIQIILELYVSRTGSPAKTFTVYRSGNDRFSNGIRRLSSMLNEAMPIVGKLINRYQNEAVIDIGKHDSDFKDLKIAVIRKDRLVIEKEGLGMVFDPSDLLGYFEPSKSEENLSEGILKRNGYYDRMNAGDSIILVSENAKEKAAEDYTNSYQKNSLLLLLLRRIR	failed
MKKQLIKSSTFRTLEVIIITVISLVLTPYLIHHLGDAHYGLWILILSALGWFNFIDLGFAYAVQRNIVLALENKDNHRINIVFSVAVALFSVLGFIAAFCVLVLAFFPELLGINEKEQSIATIAFSILAIKVFLDFIMNCFHGFFTAYLRMDIDANLGTLNMVVKSILVFYLIIDMNIYGAVFATIAADILTHSLKMHFARKLHPEFKFVLHLVKFSEVRQLFAFSKHLILMGMAKSVNRRVDPIIISHLLGLKFVAIYNVINSLMNQVESLVGAIVGVFQPVLTKMVARNTGLDGTFKLIISINFFTVILLYMPLAILAEDFITLWIGLDYAQAGQLAPILGFAYICRTVSRPISSLLLAKAQHQLLSVVNLLGALLNIGLSLVLGSQWGLLGIAIATACSFFVSDVILHLVLLNKYTELPVLKPILEFIKLVVLYILLVVLGISMMQLFEPLNWGQLIIAAIACVCIALLIAWPMLLDKEVKQKLLGMLIKTGKAHD	failed
MKKQYWWIIVTYILMQLSGVVGLPLLLKTGLYDNRGFTIEEKGQIITGHWAIISFFIALCIVLWLLRTDIRDRHLDPMRSSVPATIGWIFIGFFLAIISQSIAGMIEMYVFGVPRGSENTDRLLDIARTIPWFLIVVSIIGPILEEIVFRKILFGTLYKKFNFFIAAIISSLVFATIHFDFTHLLVYTAMGLVFAFLYVKTKRIIVPIAAHVAMNTLVAIGQIFMSNEQIQEMIKEAEKMQGFIGGFFV	failed
MKKRLFVLSLILLVALDQLSKFWIVSHIALGEVKPFIPGIVSLTYLQNNGAAFSILQDQQWFFVVITVLVIGYAIYYLATHPHLNIWKQLALLLIISGGIGNFIDRLRLAYVIDMIHLDFVDFAIFNVADSYLTVGVILLLICLWKEEDYGN	failed
MKKSINEQKTIFIILLSNIFVAFLGIGLIIPVMPSFMKIMHLSGSTMGYLVAAFAISQLITSPFAGRWVDRFGRKKMIILGLLIFSLSELIFGLGTHVSIFYFSRILGGVSAAFIMPAVTAYVADITTLKERSKAMGYVSAAISTGFIIGPGAGGFIAGFGIRMPFFFASAIALIAAVTSVFILKESLSIEERHQLSSHTKESNFIKDLKRSIHPVYFIAFIIVFVMAFGLSAYETVFSLFSDHKFGFTPKDIAAIITISSIVAVVIQVLLFGKLVNKLGEKRMIQLCLITGAILAFVSTVMSGFLTVLLVTCFIFLAFDLLRPALTAHLSNMAGNQQGFVAGMNSTYTSLGNIFGPALGGILFDLNIHYPFLFAGFVMIVGLGLTMVWKEKKNDAAALN	failed
MKKSLLMLLLSAATLSSIEAQTIQQMKAGGPWPVRAAFKTDTVGMNGSKYNPADLLRQAYDATDKDLRNVSADKDGRIAGRKAGSKAERSEMAVYSFALTAEHFAKGDIEVFGQGRMSLWLDDKQIGIADSPNSKGDTTLRFSASLSLVPGTHHLLLKSLLLEGDTTATDVRVVLKPKTARDSSALYPNYTGKERLSLKHMMSGTFLSGGSLSPTGKYVLTSYRVSRDNKPAVTYNQLRDAKGNILLNLNEKEALGWMPHEDMLMVIRKEGNAKRLVAFDPMGKGEKTLVSNLPESQFRMSPDARYYLFYKQEKGPGKDPLFIRHLDPDDRQSDWRDRSQIYLLNAESGVYGPLTFGYSTTYIYDIAPDSKRALIGTLSTDWTRRPFRFATIMEYNMETGKADTLITRDPSIDAIQYTPDGKHLIVMGSADAFGNIGLNLKSGVTPNSYDKQFFLFDLSTRKATALTKNFNPSVSAGRFDRKNNYYYFRAENGSRKQLYRLDLKTLEISQIQTGEDVVQWFGVAADNGAVWYSGQSANNADRLYRLDGTKGKLVWDLSAEKLANIDFTPARDWNYTAPDGTVVEGWYYLPPQFDPSKKYPMLVYYYGGTSPINRTLEGHYSLAMYAAQGYVVYTLNPSGTTGYGQEYAARHVNAWGDRTADEIIGATKEFIRTHSFVNGKKVGCFGASYGGFMTQYLQTKTDIFAAAVSHAGISSISNYWGSGYWGMGYSTVASTDSYPWNNPDLYAGHSPLFRADKIHTPLLLLHGSVDTNVPTAESVNLYNALKILGREVEFIEFTEQDHFILEPERRIRWTNSICAWFARWLQDDPTWWNELYPPVNL	failed
MKKTFNLVATAAAGIEAVVGKELRNLGLDCQVENGRVLFKGNIETIAKSNLWLRSADRIKIVVGEFPARTFEELFQGVYALDWENYLPLGCQFPVAKAKSVKSKLHNEPSIQGITKKAIVKKLQHYFHRPDSVPLPENGPEFKIEISLLKDQARVMIDTTGPSLFKRGYRTEKGGAPIKENMAAAIILLSNWFPDKPFVDPTCGSGTFCIEAAMIGMNIAPGFNRDFAFEEWPWVDEALVTRVRNEADEQADYDIQLDISGFDFDGRMVEIARKNAREVGLEDVVKLKQMRLQDFKTNKINGVLISNPPYGERLLDDKAVDILYNEMGETFAPLKTWSQFILTNDTDFEQKFGRKADKKRKLYNGSLKVDLYQFYGQRVKRVLR	not failed
MKKTIEKILKDIIDATSITDMCDKSVCHWLQPVVDTIVFPEYYLFSSNHLKENIISLLIVLGVLLIFGLIVEEMMKRIFRKNEEKYMWVHKIFEKVIVAFLLFYSMKTIIYFIALKHHSF	failed
MKKTPIYVEISIQAEMERLWRYTQDPTLHRQWDLRFTDITYLKRRPGEPQRFLYETRIGFGLEHHHHHH	not failed
MKKTTLVLSALALSIGFAMGPVSSVVAAETAASSSQQLPSLAPMLEKVMPSVVSINVEGSAPVSSAGARGMPPQFQQFFGDNSPFCQDGSPFQGSPMCQGDLGGLGQGMPSKREFRSLGSGVIIDAGKGYVVTNNHVVDNANKISVKLSDGRSFDAKVIGKDPRTDIALLQLKDAKNLTAIKIANSDQLRVGDYTVAIGNPYGLGETVTSGIVSALGRSGLNVENYENFIQTDAAINRGNSGGALINLNGELIGINTAILAPDGGNIGIGFAIPSNMVKNLTSQMVEFGQVKRGELGIMGTELNSELAKAMKVDAQKGAFISQVVPKSAAAKAGIKAGDIIVSMNGKAINSFAGFRAEIGTLPVGSKMTLGLLRDGKPINVDVVLEQSSHSQVESGNLYTGIEGAELSNSDVSGKKGVKVDSVKPGTAAARIGLKKGDIIMGINQQPVQNLGELRKILDAKPPVLALNIQRGDTSLYLLMQ	failed
MKKTVIKETERLLILLGATGLLSGIGIVMNGTPITAQATTTTTQTQGILHSGDFGTSHWYISDDLTLHIGAGTFANLSNSQSAPPWTAYGDQVAKIVIEGPVTLAPNSRELFGYLGATSIEGLDQIDASHVTNFEFAFFGIQVPNLDLTSWDVHNVTDAGFMFMRAQSDVINLSGWQMPKLKLAQWMFMLAPRVHELDLAGINFRNADATRALMNMNLTVIHLGPDSLLTGTNLQPFHNDAYQDMWQDIGDGTTEAPTGKNRYTYSQLMAEFKGAAPYTYVRAKNPGQPVTVQYLDQLNQALVKADTLTGYYGDTFTAQAKTFAGYHVTSVDGEPTGTFGSRPYTVTYHYAVDEKNQQSLLGEDATITVGDPAPTSETFKAKATDKDGQALPVVVDLSQATLNQPGRYPVTLTTRDGQSKAVTLTVKAADESSSSSSSSSIDRSHSSSTPTSSSNSDDSLSSGDLISGGDTDLAVFKGQAVYATKTVRLYQRPTFKASQVRARYAKQSRTKRPMFVVIGSAHSKHHALRFKVRDVNHHSKTAGKVGYITAKKAYVTNVYYQRTYTRVTVINPQGVNGYRTRKLTGKTRHYRRGQTLRVKRLVRYHLTTRYVLTNGRYVTTNKKLVKVQQNSVQQSTQHSAAVTTRTIK	failed
MKKVLALVAFVVLFSFSFLSAGVTAQAALKDGTYSVDYTVLQGDSDSVSMANDYFDKPATVTVNGGKSTVSLQVNHSKWITGLWVEGNAVSVTSKNTASDTRKVSFPVSTLSSPVNAKIKVDIDDDGLNYHHEYQIQLRFDEGAVKSSGAAV	failed
MKKVLPALLMGFVGLNASDRLLEIMRLYQKQGLEMVGQKLDSYLADKSFWAEELQNKDTDFGYYQNKQFLFVANKSKPSLEFYEIENNMLKKINSSKALVGSKKGDKTLEGDLATPIGVYRITQKLERLDQYYGVLAFVTNYPNLYDTLKKRTGHGIWVHGMPLNGDRNELNTKGCIAIENPLLSSYDKVLKGEKAFLITYEDKFFPSTKEELSMILSSLFQWKEAWARGDFERYMRFYNPNFTRYDGMKFNAFKEYKKRVFAKNEKKNIAFSSINVIPYPNSQNKRLFYVVFDQDYKAYQHNKLSYSSNSQKELYIEIENNQVSIIMEK	failed
